± gives the uncertainty stated by the source.
Assay: protein stability index of a GFP-peptide fusion (yeast GPS) (PSI 1-4); higher = more stable; sorted into four equal gates, so the index is relative within each strain
Outline: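 Plasmids in a pooled yeast library fused tiled 17-residue yeast protein peptides downstream of GFP and also expressed Cherry. Mid-log cultures grown without leucine were sorted into four equal gates by GFP/Cherry fluorescence ratio. Each gate's plasmids were PCR-amplified and Illumina-sequenced, and reads were matched to strains by barcodes. The protein stability index is derived by multiplying each gate's read frequency by its gate number and summing the results.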

Row | Sequence | protein stability index (pdr5∆) | protein stability index (ubr1∆) | protein stability index (doa10∆) | protein stability index (san1∆)
1 | RASKALIERYYPKLTLD [RPS17A] | 2.51 ± 0.14 | 2.37 ± 0.25 | – | –
2 | SNLEKLPKYKEKKAASA [MED7] | 2.82 ± 0.06 | 2.25 ± 0.057 | 2.14 ± 0.06 | 2.83 ± 0.06
3 | KDFTNKNLIQLISLKLL [SRB8] | 1.49 ± 0.035 | 1.91 ± 0.032 | 1.28 ± 0.042 | 1.66 ± 0.067
4 | SKNRIIVEADEKKGIVQ [RET1] | 1.47 ± 0.061 | 1.59 ± 0.077 | 1.21 ± 0.14 | –
5 | IFGSGFGSADDTYPYLT [FAS1] | 1.74 ± 0.059 | 2.1 ± 0.078 | 2.3 ± 0.075 | 1.73 ± 0.09
6 | NVFARLSRLLSLWEVFQ [RPC82] | 2.06 ± 0.13 | 2.38 ± 0.067 | 1.78 ± 0.16 | 2.79 ± 0.14
7 | MNNQPQGTNSVPNSIGN [SNF5] | 3.1 ± 0.096 | 2.92 ± 0.055 | 2.87 ± 0.074 | 3.04 ± 0.12
8 | MLQKKLVEVEDEKIEAI [SRB7] | 3.37 ± 0.1 | 3.39 ± 0.086 | 3 ± 0.11 | 3.16 ± 0.082
9 | YNSRPRSVRIPWYNNPV [PRP8] | 2.22 ± 0.062 | 2.49 ± 0.049 | 2.34 ± 0.083 | 1.73 ± 0.088
10 | IVMVWLKENTYVMERPK [YDL116W/NUP84] | 1.81 ± 0.06 | 1.4 ± 0.056 | 1.46 ± 0.064 | 1.43 ± 0.14
11 | TKFKVRGSSSLYTLVIN [RPL38] | 1.32 ± 0.09 | 2.13 ± 0.09 | 2.08 ± 0.074 | 1.55 ± 0.13
12 | AEFKKRKIEAETRNGKV [YCS4] | 3.18 ± 0.072 | 3.13 ± 0.094 | 2.82 ± 0.1 | 3.18 ± 0.1
13 | MNGIQVDINRLKKGEVS [PRE3] | 1.57 ± 0.063 | 1.36 ± 0.061 | 2.15 ± 0.095 | 2.52 ± 0.082
14 | YIQRRLVKALEDIMVHY [RPO21] | 2.11 ± 0.051 | 2.05 ± 0.055 | 1.77 ± 0.049 | 1.4 ± 0.075
15 | NITFSEELVSLAVFLFD [YJL039C/NUP192] | – | 1.66 ± 0.29 | – | 1.62 ± 0.28
16 | MASLPHPKIVKKHTKKF [RPL32] | 2.97 ± 0.093 | 2.83 ± 0.075 | 2.41 ± 0.088 | 2.22 ± 0.088
17 | FGHIDLAKPVFHVGFIA [RPO21] | 2.7 ± 0.085 | 2.63 ± 0.06 | 2.37 ± 0.072 | 2.73 ± 0.052
18 | GSQIKFIVVPDLLKNAP [SMD3] | 2.13 ± 0.047 | 1.8 ± 0.038 | 2.05 ± 0.052 | 1.8 ± 0.055
19 | KGHKFNNTKAGRRKTWK [RPL15A] | 2.93 ± 0.081 | 3.1 ± 0.1 | 2.79 ± 0.063 | 2.8 ± 0.093
20 | QVSNFAPQVYIITKNEN [GAL11] | 1.98 ± 0.11 | 1.67 ± 0.084 | 2.96 ± 0.16 | 2.38 ± 0.26
21 | PQEPKHIQEEEEQDVDM [RPC19] | 3.36 ± 0.09 | 3.28 ± 0.056 | 3.41 ± 0.09 | 3.12 ± 0.05
22 | GIFIKILNDSLIYHLKD [IRR1] | 1.31 ± 0.048 | 1.75 ± 0.033 | 1.54 ± 0.045 | 1.69 ± 0.068
23 | SNGGGKVKPIRGFCQRL [RPO31] | 3.12 ± 0.11 | 3.25 ± 0.065 | 2.94 ± 0.13 | 3.09 ± 0.097
24 | LICQNNLNAFVDFSKYN [SRP72] | 2.99 ± 0.063 | 2.54 ± 0.061 | 3.1 ± 0.077 | 3.11 ± 0.044
25 | EIIPLQDYYIIGANIYQ [MED6] | 3.07 ± 0.052 | 3.1 ± 0.044 | 2.97 ± 0.064 | 3.16 ± 0.04
26 | VSEDLLDERGHEKIEDE [RPN4] | 3.53 ± 0.15 | 3.45 ± 0.11 | 3.36 ± 0.1 | 3.71 ± 0.08
27 | AMHYSSNIELAFSSVEH [COB] | 1.9 ± 0.06 | 2.09 ± 0.082 | 1.93 ± 0.058 | 1.91 ± 0.087

Row | Sequence | protein stability index (pdr5∆) | protein stability index (ubr1∆) | protein stability index (doa10∆) | protein stability index (san1∆)
28 | ETDGKHGKRRSQVVETH [YMR129W/POM152] | 2.93 ± 0.097 | 3.11 ± 0.048 | 3.27 ± 0.11 | 3.21 ± 0.056
29 | YVNALADVLYKTAFKPH [QCR2] | 3.06 ± 0.048 | 2.81 ± 0.05 | 3.04 ± 0.054 | 2.72 ± 0.038
30 | FSEVYEYNRLKVQDAIE [LIN1] | 2.17 ± 0.055 | 2.89 ± 0.086 | 2.71 ± 0.059 | 3.04 ± 0.076
31 | FLLSAMTMASKSLEVVN [NSL1] | 1.45 ± 0.069 | 1.61 ± 0.047 | 1.4 ± 0.08 | 1.54 ± 0.15
32 | VFGFRANKMRQDRLSDL [SMC4] | – | 2.74 ± 0.081 | – | –
33 | TYEAIEITDAYCFAKND [YMR129W/POM152] | 2.66 ± 0.053 | 3.01 ± 0.045 | 2.93 ± 0.061 | 2.7 ± 0.05
34 | ITTFVKRSTVPLNDGFV [YML103C/NUP188] | 2.32 ± 0.093 | 2.35 ± 0.053 | 2.37 ± 0.066 | 1.91 ± 0.11
35 | IYVHVRRSTPFSKIAEY [ESC2] | 2.33 ± 0.049 | 2.52 ± 0.047 | 2.16 ± 0.053 | 2.52 ± 0.05
36 | QNNTTKFHSELQYLDKH [RPN12] | 3 ± 0.095 | 3.17 ± 0.061 | 2.81 ± 0.1 | 2.39 ± 0.26
37 | VGLVSPSFMLKHHQLFY [RPN1] | 1.7 ± 0.083 | 1.4 ± 0.062 | 1.64 ± 0.079 | 1.32 ± 0.16
38 | GWYHSGPKLRASDLKIN [RPN8] | 1.95 ± 0.035 | 2.06 ± 0.035 | 1.57 ± 0.036 | 1.59 ± 0.058
39 | WSKESNYDCKVISIVGG [PRP28] | 3.06 ± 0.11 | 2.74 ± 0.094 | 3.06 ± 0.11 | 2.31 ± 0.097
40 | RENLHILNEVFTNPSIV [RRP6] | 2.93 ± 0.063 | 2.25 ± 0.053 | 2.26 ± 0.076 | 2.5 ± 0.058
41 | IIGTFSDSYKVSLQNFS [RRP40] | 1.79 ± 0.079 | 1.96 ± 0.054 | 2.11 ± 0.099 | 2.24 ± 0.11
42 | LAEKVEKASRQQRKQKK [RPS24A] | 3.33 ± 0.11 | 3.15 ± 0.2 | 3.65 ± 0.27 | 3.35 ± 0.1
43 | LKNKKEIYRISFQLSKI [RPS9A] | 3.09 ± 0.084 | 3.2 ± 0.058 | 3.03 ± 0.12 | 3.1 ± 0.089
44 | DDVYRPAAESKIFTPNL [SNF5] | 3.09 ± 0.11 | 3.23 ± 0.19 | 2.82 ± 0.085 | –
45 | KNVRFRVLQLLAVIMDN [YCG1] | 1.54 ± 0.06 | 1.51 ± 0.043 | 1.64 ± 0.057 | 1.24 ± 0.099
46 | MTVTFLILAGQVKVKGQ [YCS4] | 2.27 ± 0.074 | 1.83 ± 0.057 | 2.34 ± 0.083 | 2.3 ± 0.086
47 | AGVEDVYTQSNGKTRTL [RPS2] | 3.21 ± 0.084 | 3.48 ± 0.057 | 2.76 ± 0.11 | 3.28 ± 0.066
48 | IKDEIDDPFTKINTRGA [SWI1] | 1.58 ± 0.1 | 2.12 ± 0.16 | 1.96 ± 0.22 | 1.53 ± 0.13
49 | ISFRSNLLKNFISSNDA [SNF6] | 1.75 ± 0.086 | 2.27 ± 0.074 | 2.77 ± 0.12 | 2.35 ± 0.21
50 | KVFIRESLSLKNIHISK [YML103C/NUP188] | 2.21 ± 0.045 | 1.92 ± 0.03 | 2.09 ± 0.039 | 2.01 ± 0.057
51 | DVKVSISHDDLQAVAVA [FAS2] | 2.6 ± 0.055 | 2.22 ± 0.049 | 2.66 ± 0.076 | 1.61 ± 0.065
52 | DSFSGAKIYPGRGTLFV [RPL24A] | 3.08 ± 0.067 | 2.68 ± 0.052 | 3.13 ± 0.065 | 2.78 ± 0.06
53 | LISSSGPIKTPVGACAT [FAS2] | 1.76 ± 0.11 | 2.17 ± 0.071 | 1.76 ± 0.053 | 1.31 ± 0.098
54 | LNRIINHMLIDSLNQLE [RGR1] | 2.96 ± 0.23 | 2.68 ± 0.19 | 3.24 ± 0.15 | 2.89 ± 0.18
